# Data: publication PMC8445988, “Characterization of two β-galactosidases LacZ and WspA1 from Nostoc flagelliforme with focus on the latter’s central active region” (Scientific Reports, 2021)
# Experiments:
# purified protein = substrate: O=[N+]([O-])c1ccccc1O[C@@H]1O[C@H](CO)[C@H](O)[C@H](O)[C@H]1O; assay: purified protein
# [1] = molecular target: the molecule itself; assay: SEC; gel filtration on an FPLC system (AKTA purifier), 20 mM Tris-HCl, 150 mM NaCl, 10% glycerol, pH 7.5; five molecular weight markers (200, 150, 66, 29, 12.4 kDa); absorbance at 280 nm
protein,measurement,setting,value
"Nf-LacZ (β-galactosidase LacZ of Nostoc flagelliforme) (enzyme, UniProt A0A2K8T1B7 1-619, looked up, β-galactosidase LacZ homolog of Nostoc flagelliforme, NCBI AUB41471, gene COO91_07519 (KEGG); 619 amino acid residues, calculated 70.8 kDa; The number of chains in the multimer is left open (at least a trimer or larger); also called COO91_07519; AUB41471) MKLLDIQKRKVESPSNRDNQRVSSFPEAGYPRPQLQRSHWLSLNGLWKFAFDNEGRCVQPGDIEGWTHHIQVPFAPESTKSGIGDTGFHPNCWYEREFETPEGDGRLLLHFGAVDYRARVWVNGQYMIEHEGGHTPFTLDITTVLNDTGITKVTVWAQDDPGDLAKPRGKQDWQLEPHSIWYPRTSGIWQTVWIERVGRTYIDSIRWSPDFERWEVGCYAAIAGDAPAGIQIKVKLSIGNTVLANDTYEVFNGEIGRRISLSDPGIDDYRNELLWSPEKPTLMDAHIELWHNNQLLDEAKSYTAMRTVGIQRDRFMLNGRPYYLRLVLDQGYWPDSLMTAPDDGALRRDVELTKAMGFNGVRKHQKIEDPRFLYWADKLGLLVWEEMPSAYRFTPKAVERTTREWAEVIRRDISHPCIVAWVTFNESWGVPNLVETAAHRNYVLAMYHLTKTLDPGRPVIANDGWESTDTDILAIHDYDTHPQRLGHRYGPEVKLSDLFDRKRPGGRILTLDNFPHQGQPVMLTEFGGIAYAPVDNPDADKAWGYERCSNISELEIKYATLLETINDIELFSGFCYTQFTDTFQEANGLLYADRTPKFPIEAIRAATLSGQGLCTPTSC",Km,purified protein,500 µM
same,stoichiometry N,[1],≥ 3
